From the nanobody polyreactivity screen of Harvey et al. (2022) come the findings set out here.

A short description of this series: yeast display, Sf9 membrane polyspecificity reagent, FACS + sequencing; frameworks hold sequencing errors. The method, boiled down: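 A nanobody's polyreactivity label depends on the gate it was sorted from. Yeast display cells were stained with 10% biotinylated, detergent-solubilized Sf9 membrane reagent for 1 hour at 4 °C, enriched on streptavidin microbeads and sorted by FACS. The low and high (top ~1%) gates were set on anti-HA fluorescence for expression and streptavidin fluorescence for reagent binding.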
For the sequence “QVQLVESGGGLVQAGGSLRLSCAASGSTFTLYAMGWYRQAPGKERELVAAISWSTTSTYYADSVKGRFTISRDNAKNTVYLQMNSLKPEDTAVYYCAAELYRAEYDYWGQGTQVTVSS”, the “polyreactivity (PSR sort gate)” value was “high polyreactivity”.

Consider “QVQLVESGGCLDQAGGSLRLSSAASGRIFFGYAMGWYRQAPGKEREFVAAISSVGSTNYADSVKGRFTISRDNAKNTVYLQMNSLKPEDTAVYYCAAAPRSGGKYGSDGGDYWGQGTQVTVSS”, for which the “polyreactivity (PSR sort gate)” value was “low polyreactivity”. As for “QVQLVESGVGLVQAGGSLRLSCAASGRTFEPNAMGWYRHAPGKERELVAGITWSGGSTYYADSVKGRFTISRDNAKNTVYLQMNSLKPEDTAVYYCNAPITWKRSHYGYWGQGTQVTVSS”, the “polyreactivity (PSR sort gate)” value is “low polyreactivity”. Turning to “QVQLVESGGGLVQAGGSLRLSCAASGFIFGYYAMGWYRQAPGKEREFVAAITKRGGRTYYADSVKGRFTISRDNAKNTVYLQMNSLKPEDTAVYYCNKAIRQDRWVQEEDYWGQGTQVTVSS”, the “polyreactivity (PSR sort gate)” value is “high polyreactivity”. On to “QVQLVESGGGLVQAGGSLRLSCSASGSTFYVYAMGWYRQAPGKERELVAAIDWSDGSTYYADSVKGRFTISRDNAKNTVYLQMNSLKPEDTAVYYCAADVGGGVDYVDYYYWGQGTQVTVSS”, for which the “polyreactivity (PSR sort gate)” value is on record as “high polyreactivity”.

Take “QVQLVESGGGLVQAGGSLRLSCAASGRIFTYNTMGWYRQAPGKERELVAAIRTGGSTNYADSVKGRFTISRDNAKNTVYLQMNSLKPEDTAVYYCNTVRHSSSVYWYDYWGQGTQVTVSS”: the “polyreactivity (PSR sort gate)” value is “low polyreactivity”. As to “QVQLVESGGGLVQAGGSLRLSCAASGFIFWYYAMGWYRQAPGKERELVAAISWSGTSTYYADSVKGRFTISRDNAKNTVYLQMNSLKPEDTAVYYCAAGPYSYYPLHAHYDYWGQGTQVTVSS”, the “polyreactivity (PSR sort gate)” value is given as “high polyreactivity”. In the case of “QVQLVESGGGLVQAGGSLRLSCAASGRIFSFNAMGCYRQATGKERELVAAISWSTGSTFYADSVKGRFTISRDYAKNTVFLQMNSLKPEDTAVYYCAREYYYRRGFFLRGYWGQGTQVTVSS”, the “polyreactivity (PSR sort gate)” value was “high polyreactivity”. For “QVQLVESGGGLVQAGGSLRLSCAASGSIITHNTMGWYRQAPGKERELVDSIDSGASTNYADSVKGGFTISRDNAKNTVYLQMNSVKPEDTAVYYCAADVAKFRYRDDYWGQGTQVTVAS” the value was “low polyreactivity”. On to “QVQLVESGGGLVQAGGSLSLSCAASGSILVGYAMGWYRQAPGKERELVARISTSGGSTTYYADSVKGRFTISRDNAKNTVYLQMNSLKPEDTAVYYCAADYKPYYRRRYDYWGQGTQVTVSS”, for which the “polyreactivity (PSR sort gate)” value is reported as “low polyreactivity”. With “QVQIVDSGGGLVQAVGSLRLSCAASGSIIKKYAMGWYRQAPGKERELVAAISSTCGSTKYADSVKGRFTISRDNAKNTVYLQMNSLKAEDTAVYYCAVRYKWPYDYWGQGTQVTVSS”, the “polyreactivity (PSR sort gate)” value is “high polyreactivity”. For “QVQLQESGGGLVQAGGSLRLSCAASGTISVHASMGWYRQAPGKERELVAGITDGANTYYADSVKGRFTISRDNSKNTVYMQKNSLKPEDTAVYYCAAYYGTEVHFTYWGQGTQVTVSS”, the “polyreactivity (PSR sort gate)” value is reported as “low polyreactivity”. Turning to “QVQLVESGGGLVQAGGSLRLSCAASGSTAENVMGWYRQAPGKERELVAAISSRGGSTYYADSVKGRFTISRDNAKNTVYLQMNSLKPEDTAVYYCAAEYVSHFSGDRYDYWGQGTQVTVSS”, the “polyreactivity (PSR sort gate)” value is “low polyreactivity”. As for “QVQLVESGGGLVQAGGSLRLSCAASGGTFSTYAMGWYRQAPGKERELVAAISWRGGSTYYADSVKGRFTISRDNAKNTVYLQMNSLKPEDTAVYYCAAYYSRGWLLYWDEMSYWGQGTQVTVSS”, the “polyreactivity (PSR sort gate)” value is “high polyreactivity”.

Regarding “QVQLVESGGGLVQAGGSLRLSCAASGFTFYPYAMGWYRQAPGKERELVAAISNGDSTHYADSVKGRFTISRDNAKNTVYLQMNSLKPEDTAVYYCAAVRGYPSRITSYVYTYGYWGQGTQVTVSS”, the “polyreactivity (PSR sort gate)” value was “low polyreactivity”. On to “QVQLVESGGGLVQAGGSLRLSCAASGIIFQAYDMGWYRQAPGKERELVAAISYSGGSTYYADSVKGRFTISRDNAKNTVYLQMNSQKPEDTAVYYCAATFYGYFDSVFSWGYYYCGQGTQVTVSS”, for which the “polyreactivity (PSR sort gate)” value is given as “low polyreactivity”. With “QVQLVESGGGLVQAGGSLRLSCAASGFTFGTYAMGWYRQAPGKERELVAAISKRGGSTYYADSVKGRFTISRDNAKNTVYLQMNSLKPEDTAVYYCATGSYTTYGYGYWGQGTQVTVSS” the entry was “high polyreactivity”; with “QVQLVESGGGLVQAGGTLRLSCAASGNTFRYYAMGWYRQSPGKERELVARITGRAGSTYYADSVKGRFTISRDNAKKTVYLQMNSLKPEDTAVYYCAAEFYYGFDYWGQGTQVTVSS”, “high polyreactivity”.

With “QVQLQESAGGLVQAGGSLRLRCSASGYISCDASMGSYRQAPGKERELAASITKGSSTNYADSVKGRFTIRDNAKNTVYLQMNSLKPEDTAVCYCAVTYPYWGDYTYWGQGTQVTVSS”, the “polyreactivity (PSR sort gate)” value is given as “low polyreactivity”. For “QVQLQESGGGLVQAGGSLRMSCAASGNIFDADIMGWSRQAPGKERELVASNTDGRRTNYADSVKGRYTISRDSEKNTVYLQMNSLKAEDTAEYYCAAIAYPVVPTSFDYDCDYFHWGQGTQVTVSS” the value was “high polyreactivity”.

Regarding “QGQLVESGGGLVQAGGSLRLSCAASGSIFWYYAMGGYRQAPGKERELVADITSTGGSTYYADSVKGRFTISRDNAKNTVYLQMNSLKPEDTAVYYCAGEASYHGYYSLGYWGQGTQVTVSS”, the “polyreactivity (PSR sort gate)” value is listed as “high polyreactivity”.

Regarding “HVQLVESGGGLVQAGGSLRISCAASGITFYAYAMGWYRQAPGKERELVAAITRRGGSTRYADSVKGRFTITRDNAKNTVYLQMNSLKPEDTAVYYCNARSGRYFLGYGYWGQGTQVTVSS”, the “polyreactivity (PSR sort gate)” value was “high polyreactivity”. With “QVQLVESCGGLVQAGGSLRLSCAASGFIIGYYAMGWYRQAPGKERELVAAISSTGGSTYYADSVKGRFTISRDNAKNNVYLQMNSLKPEDTAVYYCAKRFAYYRYHPGYDYWGQGTQVTVSS”, the “polyreactivity (PSR sort gate)” value is recorded as “high polyreactivity”.

Consider “QFKLVESGGGLVQAGGSLRLSCAASGVIIQGNAMGWYRQAPGNEMELVAAISSSVSTYYADSVKGRFTISRDNAKNTVYLQMTSLKPEDTAVYYCNAGFPLSLWLGDYWGHGTQVTVSS”, for which the “polyreactivity (PSR sort gate)” value is given as “low polyreactivity”.

As to “QVQLVESGGGLVQAGGSLRLSCAASGSIFYVYAMGWYRQAPGNERELVADITTRDGDTYYADSVKGRFTISRDNAKNTVYFQMNSLKPEDTAVYYCAADLNAYPQRAYDYWGQGTQVTVSS”, the “polyreactivity (PSR sort gate)” value is on record as “low polyreactivity”. With “QVQLVESGGLLVQAGGSLRLSCAASGFIFNQYAMGWDRQAPAKVREFVAGISWSGGATYYADSVKGRFTISRDNAKNTVYLQMNSLKPEETAVYYCAADRTYSFYYTQGYEYWGQGTHVTVSS” the entry was “low polyreactivity”; with “QVQLVESGRGLVQAGGSLRLSCAASGSIFRYNAMGWYRQAPGKERELVAAITRRGTSTYYADSVKGRFTISRDNAKNTVYLQKNSLKPEDTAVYYCAARYLYGVPVGGHGYWGQGTQVSVSS”, “high polyreactivity”; with “QVQLEESGGGLVQAGGSLRLSCAASGSIFAVYAMGWYIQAPGKERELVATISGRGGSTYYADSVKGRFTISRDNAKNTVYLQMNSLKPEDTAVYYCNARVLFRRERMDSWGQGTQVTVSS”, “high polyreactivity”. In the case of “QVKLVESGGGLVQAGGSLRLSCAASGRTFINYAMGWYRQAPGKERELVAAITTGGRTNYADSVKGRFTISRDNSKNTVYLQMNSLKPEDTEVYYCAADRYDWGRNTLNYWGQGTQVTVSS”, the “polyreactivity (PSR sort gate)” value is on record as “low polyreactivity”. As for “QVQLVESGGGLVQAGGSLRLSCAASGSIFTHNAMGSYRQAPGKERELVAAISSGGSTNYADSVKGRFTISRDNAMNTVYLQMNSLKPDDTAVYYCAISIDGWYWRRRRYDYWGQGTQVTVSS”, the “polyreactivity (PSR sort gate)” value is recorded as “low polyreactivity”. On to “QVQLVESGGGLVKAGGSLRLSCAASGFTFGYYTMGWYRQAPGKERELVAAISSSGGSTHYADSVKGRFTISRDNAKNTVYLQMNSLKPEDTAVYYCAARYINRYPKAQPTDRSIYYWGQGTQVTVSS”, for which the “polyreactivity (PSR sort gate)” value is “high polyreactivity”. With “QVQLVESGGGLVQAGGSLRLSCDASGITITEYARGWYRQAPGTERELVAVISSVGTMYYADSVKGRFTISRDNEKNTVYLQMKSLKPEDTAVYYCAADYTDDGEYPYWSGSDYWGQGTQVTVSS”, the “polyreactivity (PSR sort gate)” value is given as “low polyreactivity”. For “QVHLVESGGGLVQAGGSLRLSCAASGFTFIRYAMGWYRQAPGKETELVAAISVSGGRTYYADSVKGRFTISRDNAKNTVYLQMNSLKPEDTAVYYCARRPSYYQGDYWGQGTQVTVSS” the value was “high polyreactivity”; for “QVQLVESGGGLVQAGGSLRLSCAASGRTFALYAMGWYRQAPGKERELVAAISSGGSTYYADSVKGRFTISRDNAKNTVYLQMNSLKPEDTAVYYCNARPKWGNRQSVRGYYILSPGGRMNYWGQGTQVTVSS”, “high polyreactivity”; for “QVQLVESGGRLVQAGASLRLSCAASGRILYWNTMGWYRQAPGKERELVASITQNVGSTYYADSVKGRFTISRDNAKNTVYLQMISMIPEDTAVYYCAAKRLSWHRYGYWGQGTQVTVSS”, “low polyreactivity”. As for “QVQLVESGGGLVQAGGSLRLSCAASGRTFRYYAMGWYRQAPGKERELVAAISYSGGSTYYADSVKGRFTISRDNAKNTVYLQMNSLKPEDTAVYYCAAGPWHYKYSLRGWGYYWGQGTQVTVSS”, the “polyreactivity (PSR sort gate)” value is recorded as “high polyreactivity”. With “QVQLVESGGRLVQAGGRLPLSCAASGSIFTGNAMGWYRQAPGKERELVAAITQRGGRTYYADSVKGRFTISRDNSKNTVYLQMNSLKPEDTAVYYCAADPPGYVYGKRYYWGQGTQVTVSS” the entry was “high polyreactivity”; with “QVQLVESGGGLVQAGGSLRLSCAPSGRIFVLYTMGWYRQAPGKERELVAAIRGGGSTNYADSVKGRFTISRDNAKNTVYLQMNSLKPEDTAVSYCAARYYREYDYWGQGTQVTVSS”, “high polyreactivity”. With “QVQLVESRVGLVQAGGSLRLSCAASGITLYYYALGWYRHAPGKEREFVAAITWRGTTTYYADSVKGPFTISRDNAKNTVYLQMNSLKPEDTALYYCAAEHEQRVADYYYWGQGTQVTVSS” the entry was “low polyreactivity”.

Consider “QVQLVESGGGLVQAGGRLRLSCAASGRIFGINVMGWYRQAPGKERELVARITGRGGRTYYADSVKGRFTISRDNAKNTVYLQMNSLKPEDTAVYYCAADASYEAYDYWGQGTQVTVSS”, for which the “polyreactivity (PSR sort gate)” value is “high polyreactivity”.
